Source: article PMC6536497

Columns and labels:
[1] = molecular target: LGTV NS2B/3pro_E117A (Langat virus) (UniProt P29837); experiment: pull-down
[2] = molecular target: LGTV NS2B/3pro_D19A_E117A (Langat virus) (UniProt P29837); experiment: pull-down

## GFP-tagged TRAF6 (TRAF6-GFP) (from UniProt Q9Y4K3 1-522) (natural protein)
[1]
  percent decrease in pull down of TRAF6 relative to NS2B/3pro WT (densitometry): 56.1%
[2]
  percent decrease in pull down of TRAF6 relative to NS2B/3pro WT (densitometry): 58.6%
